# Reference: patent publication US20250179180A1
# pKd: −log10 of the molar value.
# Biological target: human CD3 (human) (UniProt P07766)
# Sequence (P07766 23-207 limits assumed, chain 1 of 2): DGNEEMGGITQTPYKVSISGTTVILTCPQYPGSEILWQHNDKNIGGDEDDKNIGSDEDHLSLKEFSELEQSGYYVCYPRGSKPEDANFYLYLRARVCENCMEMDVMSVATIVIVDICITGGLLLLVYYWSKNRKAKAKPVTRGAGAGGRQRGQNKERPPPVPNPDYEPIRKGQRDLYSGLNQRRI
# Sequence (chain, as listed by the source limits assumed, chain 2 of 2): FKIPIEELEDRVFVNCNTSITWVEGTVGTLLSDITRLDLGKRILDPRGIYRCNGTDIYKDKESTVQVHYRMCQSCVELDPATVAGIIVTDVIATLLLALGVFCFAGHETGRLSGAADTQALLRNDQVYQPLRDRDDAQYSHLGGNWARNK
substance,measurement,value
TNB-384B (bispecific antibody),pKd,7.52
